# Experiments:
# [1] = target: WT-Dsg2, complete extracellular region (EC1-5) of human desmoglein-2 (human) (UniProt Q14126); assay: single-molecule AFM binding assay
# [2] = target: Full-length I175D Pcad fused to a C-terminal mCherry tag (human); assay: co-IP
# [3] = target: Full-length W2A Pcad fused to a C-terminal mCherry tag (human); assay: co-IP
# [4] = target: W2A-Dsg2, complete extracellular region (EC1-5) of human desmoglein-2 (human) (UniProt Q14126); assay: single-molecule AFM binding assay
Substance,binding probability [1] [%],Dsg2 binding capacity relative to WT-Pcad (Dsg2/Pcad pull-down ratio) [2] [%],Dsg2 binding capacity relative to WT-Pcad (Dsg2/Pcad pull-down ratio) [3] [%],binding probability [4] [%]
"A5P-Pcad, complete ectodomain of human P-cadherin (from UniProt P22223 25-654) (domain or fragment)",4.5,–,–,–
"Desmoglein-2 (Dsg2), endogenous in A431 cells (from UniProt Q14126 50-1118) (natural protein)",–,80,25,–
"I175D-Pcad, complete extracellular region (EC1-5) of human P-cadherin (from UniProt P22223 25-654) (domain or fragment)",7.8,–,–,–

# Now from value to substance:
binding probability [1] [%],Dsg2 binding capacity relative to WT-Pcad (Dsg2/Pcad pull-down ratio) [2] [%],Dsg2 binding capacity relative to WT-Pcad (Dsg2/Pcad pull-down ratio) [3] [%],binding probability [4] [%],Substance
4,–,–,–,"W2A-Pcad, complete extracellular region (EC1-5) of human P-cadherin (from UniProt P22223 25-654) (domain or fragment)"
8,–,–,4,"WT-Pcad, complete extracellular region (EC1-5) of human P-cadherin (from UniProt P22223 25-654) (domain or fragment)"

# Source: article doi:10.1101/2025.09.15.676363
